Key:
[1] = target: T1, Purified recombinant human CD26 (rhDipeptidyl peptidase IV), R&D Systems CAT# 1180-SE (human, UniProt P27487 29-766); assay: SPR (Biacore), IgG1 over CD26
T1 construct: also called hu-CD26; soluble human CD26
Protocol: Fabs produced in E. coli as described below were diluted in PBS in a concentration of ˜0.5 μM for the assay. A typical recording included a 3 minute period of injection of the Fab followed by a period of 15 minutes of dissociation, and analysis was performed based on the raw data of the binding curves accordingly.
Analyses thereof were performed using Biacore® as described in Example 1, excepting the binding partners were the rhuMAbs noted above.

[2] = target: peptide 125 (human); assay: peptide microarray
[3] = target: peptide 121 (human); assay: peptide microarray
[4] = target: peptide 13 (human); assay: peptide microarray
[5] = target: peptide 69 (human); assay: peptide microarray
[6] = target: peptide 16 (human); assay: peptide microarray

T1 sequence (P27487 29-766 limits assumed): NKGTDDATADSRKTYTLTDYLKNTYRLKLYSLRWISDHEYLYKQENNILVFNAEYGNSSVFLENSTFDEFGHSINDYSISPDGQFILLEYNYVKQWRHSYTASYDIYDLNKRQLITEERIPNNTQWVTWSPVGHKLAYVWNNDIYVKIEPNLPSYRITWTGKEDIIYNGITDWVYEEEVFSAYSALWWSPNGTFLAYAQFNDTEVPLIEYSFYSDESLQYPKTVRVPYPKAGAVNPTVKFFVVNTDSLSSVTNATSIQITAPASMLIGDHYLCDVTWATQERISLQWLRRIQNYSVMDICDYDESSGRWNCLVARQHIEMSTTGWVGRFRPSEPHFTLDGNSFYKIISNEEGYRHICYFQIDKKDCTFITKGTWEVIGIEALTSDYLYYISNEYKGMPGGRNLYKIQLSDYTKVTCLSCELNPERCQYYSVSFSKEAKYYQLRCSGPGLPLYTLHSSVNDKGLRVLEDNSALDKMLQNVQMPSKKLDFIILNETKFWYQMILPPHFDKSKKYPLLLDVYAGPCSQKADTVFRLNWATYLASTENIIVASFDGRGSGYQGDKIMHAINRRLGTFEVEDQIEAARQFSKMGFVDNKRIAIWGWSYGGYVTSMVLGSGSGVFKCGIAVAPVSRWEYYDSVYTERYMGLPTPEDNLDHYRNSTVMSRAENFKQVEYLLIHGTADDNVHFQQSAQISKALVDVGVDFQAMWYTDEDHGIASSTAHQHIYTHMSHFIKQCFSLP

koff [1]: 0.000108 s⁻¹ | kon [1]: 485000 M⁻¹ s⁻¹ | Mean Signal Value [2]: 1.8 | Mean Signal Value [3]: 2.08 | Mean Signal Value [4]: 1.94 | Mean Signal Value [5]: 2.45 | Mean Signal Value [6]: 1.92
B1: rhuMAb 411 (antibody, human IgG1, kappa, V domains shown)
VH: EVQLVESGAGVKQPGGTLRLTCTASGFSLTTYGVHWVRQAPGKGLEWVGVIWGDGRTDYDAAFMSRVTISKDTSKSTVYLQMNSLRAEDTAVYYCMRNRHDWFDYWGQGTTVTVSS
VL: DILLTQSPSSLSATPGERATITCRASQGIRNNLNWYQQKPGQAPRLLIYYSSNLQSGVPSRFSGSGSGTDFTLTISRLQPEDVAAYYCQQSIKLPFTFGSGTKVEIKR
notes: also called X411
